In general, Kd refers to a measure of binding affinity in units of concentration.

Changes are numbered by the printed parent chain. Numbers in names are those of the source.

Test [1] has as its target T1, human complement C2 zymogen (human, UniProt P06681 21-752).
T1 construct: also called huC2; human C2
T1 sequence: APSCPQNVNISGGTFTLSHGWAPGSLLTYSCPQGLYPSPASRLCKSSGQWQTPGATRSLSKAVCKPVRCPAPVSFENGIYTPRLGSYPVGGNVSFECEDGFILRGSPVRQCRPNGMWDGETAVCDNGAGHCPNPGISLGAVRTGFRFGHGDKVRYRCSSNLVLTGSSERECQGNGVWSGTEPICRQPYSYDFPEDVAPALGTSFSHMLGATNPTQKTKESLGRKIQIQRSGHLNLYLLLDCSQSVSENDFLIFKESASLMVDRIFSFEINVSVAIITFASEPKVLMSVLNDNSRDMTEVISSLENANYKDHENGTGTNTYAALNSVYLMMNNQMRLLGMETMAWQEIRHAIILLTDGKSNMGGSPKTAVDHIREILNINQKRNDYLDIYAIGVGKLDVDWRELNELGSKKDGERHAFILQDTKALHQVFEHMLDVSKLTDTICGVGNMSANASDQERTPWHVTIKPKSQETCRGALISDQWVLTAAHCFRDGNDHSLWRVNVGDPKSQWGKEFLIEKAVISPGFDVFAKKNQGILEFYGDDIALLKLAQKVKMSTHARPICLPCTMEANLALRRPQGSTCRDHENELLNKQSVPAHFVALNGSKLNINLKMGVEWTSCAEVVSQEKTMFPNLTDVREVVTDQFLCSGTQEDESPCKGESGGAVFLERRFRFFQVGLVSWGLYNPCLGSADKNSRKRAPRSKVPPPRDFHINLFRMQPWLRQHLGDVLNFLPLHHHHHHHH
The test is described as follows: SPR, human C2 zymogen analyte, HBS-EP, pH 7.3, 37 C.
Method: (§1) Surface plasmon resonance (SPR, Biacore) was used for all binding affinity analyses. In brief, goat anti-human IgG was directly immobilised onto the carboxymethyl dextran surface of CM5 sensorchips to approximately 12,000 RU using standard NHS/EDC chemistry at pH 5. The immobilised antibody surface was pre-conditioned with ten injections of polyclonal human IgG (Privigen 60 s) prepared at 1 μg/mL. Ligands (anti-C2 mAbs) were captured at the beginning of each cycle as described below. An adjacent spot or flow cell in which only Polyclonal IgG was capture was used as a reference surface. The goat anti-human IgG Fc antibody surface was regenerate in 100 mM H3PO4, injected for 45 seconds at the end of each cycle. Experiments were performed at 37° C. and the flow rate of each experiment was kept constant at 30 μL/min.
(§2) Purified human C2 zymogen and human C2a were tested at concentrations ranging from 1.9 to 500 nM while human C2b was tested at concentrations ranging from 1.9 to 1000 nM. All experiments were performed in HBS-EP buffer supplemented with 0.1% BSA at 37° C. and pH 7.3. Each antibody was tested against human C2 zymogen and human C2a in duplicate and against C2b in quadruplicate. The flow rate was set to 30 μL/min. Each analyte concentration was tested in duplicate.

The target of another test is T2, human C2b (human, UniProt P06681 21-243).
T2 construct: the whole entry is named here
T2 sequence: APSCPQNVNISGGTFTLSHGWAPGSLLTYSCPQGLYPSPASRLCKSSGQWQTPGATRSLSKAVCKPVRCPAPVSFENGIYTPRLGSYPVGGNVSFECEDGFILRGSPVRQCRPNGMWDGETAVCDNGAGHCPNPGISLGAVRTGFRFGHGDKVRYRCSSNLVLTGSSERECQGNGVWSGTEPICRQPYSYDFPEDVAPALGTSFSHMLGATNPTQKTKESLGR
The test is described as follows: SPR, HBS-EP, pH 7.3, 37 C. In general terms: SPR reads the build-up and loss of mass on a sensor chip optically.

Test [2] addresses T3, human C2a (activated human C2) (human, UniProt P06681 244-752).
T3 construct: the whole entry is named here; also called huC2a
T3 sequence: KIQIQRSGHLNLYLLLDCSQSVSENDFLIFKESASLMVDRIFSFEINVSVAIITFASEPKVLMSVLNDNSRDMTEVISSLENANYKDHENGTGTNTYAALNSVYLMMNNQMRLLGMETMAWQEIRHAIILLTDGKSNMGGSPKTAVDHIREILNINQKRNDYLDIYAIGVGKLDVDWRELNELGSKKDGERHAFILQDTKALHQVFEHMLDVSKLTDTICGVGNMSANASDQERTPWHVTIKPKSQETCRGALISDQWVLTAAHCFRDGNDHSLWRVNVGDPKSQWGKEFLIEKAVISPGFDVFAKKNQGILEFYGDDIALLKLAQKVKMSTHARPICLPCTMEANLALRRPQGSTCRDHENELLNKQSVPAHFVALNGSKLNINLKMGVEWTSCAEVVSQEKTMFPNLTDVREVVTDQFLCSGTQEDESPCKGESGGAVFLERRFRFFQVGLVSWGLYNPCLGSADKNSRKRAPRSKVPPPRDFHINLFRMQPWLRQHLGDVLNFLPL
The test is described as follows: SPR, HBS-EP, pH 7.3, 37 C.
Method: as §1, §2

The target of test [3] is T4, human FcRn/β2m (human, UniProt P55899 24-297; P61769 21-119).
T4 construct: Soluble FcRn/β2m injected as analyte over immobilised antibody; also called neonatal Fc receptor
T4 sequence (P55899 24-297 limits assumed, chain 1 of 2): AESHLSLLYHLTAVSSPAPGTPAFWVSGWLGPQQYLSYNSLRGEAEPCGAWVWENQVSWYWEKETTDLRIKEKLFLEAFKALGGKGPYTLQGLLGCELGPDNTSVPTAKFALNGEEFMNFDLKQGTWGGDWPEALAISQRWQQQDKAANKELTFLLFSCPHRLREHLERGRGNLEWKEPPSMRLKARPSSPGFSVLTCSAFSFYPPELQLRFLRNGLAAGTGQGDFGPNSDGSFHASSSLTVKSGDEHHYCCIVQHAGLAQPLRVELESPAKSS
T4 sequence (P61769 21-119 limits assumed, chain 2 of 2): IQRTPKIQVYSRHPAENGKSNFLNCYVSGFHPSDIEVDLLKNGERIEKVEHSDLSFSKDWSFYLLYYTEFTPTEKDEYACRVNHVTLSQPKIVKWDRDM
The test is described as follows: SPR, antibody immobilised, FcRn/β2m analyte, pH 6.0.
Method: (§3) Anti-C2 mAbs (1 μg/mL at pH 5) were immobilized on a carboxylmethyldextran (CM5) sensorchip surface using standard EDC/NHS chemistry. Human and Cyno FcRn/β2m (40 μM) were prepared in running buffer (10 mM HEPES, 150 mM NaCl, 10 mM MES adjusted to either pH 6 or pH 7.3) and injected on the immobilized anti-C2 surface at concentrations ranging from 0.078 to 40 μM, prepared in two-fold dilutions in running buffer. Association and dissociation phases were monitored for 180 and 600 seconds, respectively. […] Double referenced sensorgrams were fitted to either a 1:1 kinetic model (pH 6), including a term for mass transport limitation or to a 1:1 steady state model (pH 7.3) where responses at the end of the association phase were plotted against respective concentrations.
(§4) Binding to both human and cynomolgus monkey FcRn was tested using the SPR methods described above.

In test [4] the target is T4, human FcRn/β2m. Put plainly: SPR, antibody immobilised, FcRn/β2m analyte, pH 7.3.
Method: as §3, §4
In test [5] the target is T4, human FcRn/β2m. Put plainly: SPR, antibody immobilised, FcRn/β2m analyte, pH 6.0; pH 6.0.
Method: as §3, §4
Test [6] deals with T5, cynomolgus monkey FcRn/β2m (cynomolgus monkey, UniProt Q8SPV9 24-297; Q8SPW0 21-119, limits assumed).
T5 construct: injected in solution over immobilised antibody; also called Cyno FcRn/β2m
T5 sequence (Q8SPV9 24-297 limits assumed, chain 1 of 2): as the sequence (P55899 24-297 limits assumed, chain 1 of 2) above, with N39D, E44Q, G99S, S189G, S190N, L217M, S269T counted along it
T5 sequence (Q8SPW0 21-119 limits assumed, chain 2 of 2): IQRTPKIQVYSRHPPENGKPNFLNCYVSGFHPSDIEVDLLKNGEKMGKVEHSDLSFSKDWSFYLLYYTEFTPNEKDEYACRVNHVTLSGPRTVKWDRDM
Put plainly: SPR, immobilised antibody, cyno FcRn/b2m analyte, pH 6.0; pH 6.0.
Method: as §3, §4

Method for human C2b: as §1, §2

B1: RF16-226G (antibody, human IgG4 S228P, lambda)
heavy: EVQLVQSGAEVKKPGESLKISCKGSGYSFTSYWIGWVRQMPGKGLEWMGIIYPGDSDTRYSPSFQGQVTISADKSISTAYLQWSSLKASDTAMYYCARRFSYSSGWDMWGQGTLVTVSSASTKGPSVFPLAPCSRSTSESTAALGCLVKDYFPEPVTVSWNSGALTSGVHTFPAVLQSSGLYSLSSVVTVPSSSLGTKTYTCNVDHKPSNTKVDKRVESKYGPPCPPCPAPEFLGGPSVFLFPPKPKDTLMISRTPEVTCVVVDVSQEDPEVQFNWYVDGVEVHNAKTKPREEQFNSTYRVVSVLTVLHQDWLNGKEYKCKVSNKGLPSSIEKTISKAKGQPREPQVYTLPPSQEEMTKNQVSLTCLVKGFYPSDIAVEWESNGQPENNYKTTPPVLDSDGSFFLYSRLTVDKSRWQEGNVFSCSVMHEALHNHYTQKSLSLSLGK
light: SYELTQPPSVSVSPGQTARITCSGDALTSKYVAWYQQKSGQAPVLVIYEDTRRPSGIPERFSGSSSGTMATLTISGAQVEDEADYYCYSTDASGHQRVFGGGTKLTVLGQPKAAPSVTLFPPSSEELQANKATLVCLISDFYPGAVTVAWKADSSPVKAGVETTTPSKQSNNKYAASSYLSLTPEQWKSHRSYSCQVTHEGSTVEKTVAPTECS
B1 gave a Kd in test [1] of 7 nM. Further, the binding result with human C2b was “no binding (tested: C2b tested up to 1000 nM)”; in test [2], “no binding (tested: C2a tested up to 500 nM)”.

B2: RF16-226G YPY (RF16-226G with the M252Y, V308P and N434Y Fc mutations) (antibody, human IgG4 S228P, lambda)
heavy: EVQLVQSGAEVKKPGESLKISCKGSGYSFTSYWIGWVRQMPGKGLEWMGIIYPGDSDTRYSPSFQGQVTISADKSISTAYLQWSSLKASDTAMYYCARRFSYSSGWDMWGQGTLVTVSSASTKGPSVFPLAPCSRSTSESTAALGCLVKDYFPEPVTVSWNSGALTSGVHTFPAVLQSSGLYSLSSVVTVPSSSLGTKTYTCNVDHKPSNTKVDKRVESKYGPPCPPCPAPEFLGGPSVFLFPPKPKDTLYISRTPEVTCVVVDVSQEDPEVQFNWYVDGVEVHNAKTKPREEQFNSTYRVVSVLTPLHQDWLNGKEYKCKVSNKGLPSSIEKTISKAKGQPREPQVYTLPPSQEEMTKNQVSLTCLVKGFYPSDIAVEWESNGQPENNYKTTPPVLDSDGSFFLYSRLTVDKSRWQEGNVFSCSVMHEALHYHYTQKSLSLSLGK
light: B1 light
As for B2, the Kd in test [1] was determined as 8 nM. For the same molecule, the binding result in the test with human C2b is “no binding (tested: C2b tested up to 1000 nM)”; in test [2] it was “no binding (tested: C2a tested up to 500 nM)”.

B3: RF16-226 M252Y, N286E, N434Y (antibody, human IgG4 S228P, lambda)
heavy: B2 heavy with N285E, P307V
light: SYELTQPPSVSVSPGQTARITCSGDALTSKYVAWYQQKSGLAPLLVIYEDTRRPSGIPAKFSGSSSGSVATLTISGAHGDDEADYYCYSTDASGHQRVFGGGTKLTVLSQPKAAPSVTLFPPSSEELQANKATLVCLISDFYPGAVTVAWKADGSPVKAGVETTKPSKQSNNKYAASSYLSLTPEQWKSHRSYSCQVTHEGSTVEKTVAPTECS
Regarding B3, the Kd with human FcRn/β2m [3] amounted to 22 nM; with human FcRn/β2m [4] it was 3300 nM.

B4: RF16-226 M428L, N434A (antibody, human IgG4 S228P, lambda)
heavy: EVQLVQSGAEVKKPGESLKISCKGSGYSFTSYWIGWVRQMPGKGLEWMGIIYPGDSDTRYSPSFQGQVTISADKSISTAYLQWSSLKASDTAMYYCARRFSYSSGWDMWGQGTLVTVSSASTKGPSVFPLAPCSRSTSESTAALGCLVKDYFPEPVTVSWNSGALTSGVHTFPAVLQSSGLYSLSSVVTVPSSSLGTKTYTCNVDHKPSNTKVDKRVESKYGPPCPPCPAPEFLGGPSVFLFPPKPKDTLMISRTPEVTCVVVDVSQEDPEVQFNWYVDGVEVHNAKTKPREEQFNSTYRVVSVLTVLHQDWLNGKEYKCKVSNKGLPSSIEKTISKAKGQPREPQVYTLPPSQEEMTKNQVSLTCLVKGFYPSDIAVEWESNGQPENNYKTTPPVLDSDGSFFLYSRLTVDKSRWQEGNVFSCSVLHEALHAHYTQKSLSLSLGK
light: B3 light
Molecule B4 yielded a dissociation constant Kd with human FcRn/β2m [5] of 640 nM.

B5: RF16-226 M252Y, V308P, N434Y (antibody, human IgG4 S228P, lambda)
heavy: B2 heavy
light: B3 light
In the case of B5, the Kd worked out at 10 nM in the test with human FcRn/β2m [3] and 1200 nM with human FcRn/β2m [4].

B6: RF16-226 Fc mutant M428L, N434A (antibody, human IgG4 S228P, lambda)
heavy: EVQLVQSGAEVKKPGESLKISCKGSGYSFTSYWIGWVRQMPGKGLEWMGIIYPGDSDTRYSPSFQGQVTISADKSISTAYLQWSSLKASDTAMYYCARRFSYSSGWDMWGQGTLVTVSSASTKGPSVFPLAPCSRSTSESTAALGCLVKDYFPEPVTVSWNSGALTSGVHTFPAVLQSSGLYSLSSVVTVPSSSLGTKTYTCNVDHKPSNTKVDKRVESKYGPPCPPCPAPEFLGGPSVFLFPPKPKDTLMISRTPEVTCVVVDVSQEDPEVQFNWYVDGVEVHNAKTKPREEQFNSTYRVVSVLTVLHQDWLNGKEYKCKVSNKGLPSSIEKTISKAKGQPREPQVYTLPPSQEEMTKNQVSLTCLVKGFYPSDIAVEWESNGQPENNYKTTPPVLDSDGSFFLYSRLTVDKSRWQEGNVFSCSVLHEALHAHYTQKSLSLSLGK
light: B3 light
The molecule B6 came in with a Kd in test [6] of 420 nM.

For the origin of these results see patent US20220332804A1 (CSL INNOVATION, published 2022).
